Measured values reported in patent US20240043859A1, “HERBICIDE-RESISTANT PROTEIN, AND GENE AND USE THEREOF” (QINGDAO KINGAGROOT CHEMICAL COMPOUND CO., LTD., priority 2020, published 2024).
“Also recorded” adds a separate entry of the source.

How the values were obtained:
[1] = Chromogenic reaction of degrading herbicides in bacteria: 2,4-D; format: cell-based, Escherichia coli; conditions: recombinant E. coli expressing the gene, 2,4-D added to the medium, red = phenols
In short: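 Colour from 2,4-D degradation was detected at A510 after 5 min at room temperature, with 4-aminoantipyrine and ferricyanide added to culture supernatant in pH 10 borate. Cultures were AAD12-expressing or empty-vector (pET15b) BL21(DE3), grown overnight at 28 °C with 0.5 mM 2,4-D, 0.1 mM IPTG and 2 mM α-ketoglutarate.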

[2] = format: cell-based, Escherichia coli
Description: (§1) To transform the plasmids to be tested, an AAD12-expressing plasmid and a blank control plasmid pET15b were respectively transformed into the protein expression E. coli BL21(DE3) strains. A monoclone was selected and inoculated in a 10 ml centrifuge tube with 3 ml LB medium, and cultivated at 37° C., 200 rpm for 6-8 hours. […] The temperature was switched to 28° C. and the cultivation continued overnight. In the next morning, 200 μL of each bacteria solution was taken and centrifuged to precipitate thallus, 180 μL of the supernatant was taken and added in a 96-well plate, and 20 μL of borate buffer of pH 10 was added. Then the mixture was added with 2 μL of 8% potassium ferricyanide and mixed well, followed by adding 2 μL of 2% 4-aminoantipyrine, and placed at room temperature for 5 min to observe the color and detect the A510 value. […]

[3] = test system: Arabidopsis thaliana; test: Herbicide resistance of transgenic Arabidopsis thaliana seedlings on plate medium (root growth); format: in vivo; conditions: Arabidopsis overexpressing the gene
Description: Expression in Arabidopsis thaliana was regulated by its AtUbi10 Arabidopsis thaliana ubiquitin promoter and the MAS (mannopine synthase) terminator. Hygromycin resistance gene (HygR=hpt) served as the selection marker.
Preparation of Agrobacterium infection solution: An activated Agrobacterium (GV3101) monoclone was picked and inoculated in 30 ml YEP liquid medium [yeast powder 10 g/L, tryptone 10 g/L, NaCl 5 g/L, 25 mg/L Rifampicin and 50 mg/L Kanamycin], shaking-cultured at 200 rmp/min, 28° C. overnight until the OD600 was about 1.0-1.5, then centrifuged at 6000 rmp/min for 10 min to collect the bacteria, and the supernatant was discarded. Arabidopsis thaliana infection solution (sucrose 50 g/L, Silwet L-77 300 μL/L, no need to adjust pH) was used to resuspend the cells to OD600=0.8 for later use.
Genetic transformation of Arabidopsis thaliana by flower dipping: Before transformation of Arabidopsis thaliana plants, attentions were paid to whether the plants were growing well, the inflorescences were abundant, and no stress response occurred. The first transformation was performed when plants were about 20 cm high. Plants could be properly watered if the soil was dry. The grown siliques were cut off with scissors the day before transformation. The inflorescences of the plants to be transformed were soaked in the above-mentioned Agrobacterium solution for 30 seconds to 1 minute, which was stirred gently during the period. And a layer of liquid film should appear on the infiltrated plant. The transformed plants were cultured in a dark environment for 24 hours, and then taken out and grown in a normal light environment. A second transformation could be performed in the same way a week later.
Seeds were treated with disinfectant for 5 min, washed with sterile water for 5 times and then one part was spread on MS transgenic screening medium (containing 30 μg/mL hygromycin, 100 μg/mL carbenicillin) to screen transgenic seedlings, and the other part was spread on MS medicated medium [containing 250 μg/mL Cefotaxime sodium and 0.3 μM 2,4-D] to screen herbicide-resistant seedlings at mean time. The petri dish spread with seeds was placed at 4° C. for vernalization for 3 days, and taken out to a illumination incubator for cultivation (temperature of 22° C., 16 hours of light, 8 hours of darkness, light intensity of 100-150 μmol/m^2/s, humidity of 75%). After one week, it was observed that the roots of the wild-type control seedlings were not elongated and their growth was inhibited, while the transgenic seedlings had normal root growth, showing drug resistance. The transgenic positive seedlings and herbicide-resistant seedlings were photographed and transplanted into small pots filled with soil for cultivation.
The transgenic lines with the nine vectors, pQY2309, pQY2310, pQY2311, pQY2312, pQY2313, pQY2314, pQY2315, pQY2316 and pQY2317, overexpressing AAD gene in the T2 generation were further tested on plate medium for their resistance to 2,4-D, 2,4-DB sodium and MCPA herbicide. Two events were tested for each transformant.

[4] = Chromogenic reaction of degrading herbicides in bacteria: triclopyr; format: cell-based, Escherichia coli; conditions: recombinant E. coli expressing the gene
Description: as §1

Molecule | Chromogenic reaction of degrading herbicides in bacteria: 2,4-D [1] | Chromogenic reaction of degrading herbicides in bacteria: 2,4-D ([1]; listed as D34) | Chromogenic reaction of degrading herbicides in bacteria: MCPA [2] | Resistance of transgenic Arabidopsis thaliana: 2,4-D [3] | Chromogenic reaction of degrading herbicides in bacteria: 2,4-D ([1]; listed as D72) | Chromogenic reaction of degrading herbicides in bacteria: Triclopyr [4] | Chromogenic reaction of degrading herbicides in bacteria: Triclopyr ([4]; listed as D72) | Chromogenic reaction of degrading herbicides in bacteria: 2,4-D ([1]; listed as D32) | Chromogenic reaction of degrading herbicides in bacteria: 2,4-D ([1]; listed as D50) | Resistance of transgenic Arabidopsis thaliana: MCPA [3]
QYD34: AAD-like enzyme, SEQ ID NO. 67 (protein, Synthetic polypeptide, QYD34, D34) MSMQVIPLDATFGATVTGLKLSELDEAVFAEIYDHWLRYSLLVFPGQNLDNEQQVTFAKRFGALEIDLVELSNVKDDGSLRTAPDDDRIKILKGNMGWHHDSTYMPVQAKGAVFRADTVPSHGGETGWADMCAAYDALGDAMRNRIEGLSAHHSLTYSQGKAGFKHKDKDSEYNGYGLDQDGAPLRPLVKTHAETGRKTLTIGRHAHAVPGLSQADSEALLTELVDFACQPPRIYHHGWQPGDVVVWDNRCLMHQACPWDMAERRVMFHSRLAGDPEHEFAAPN | Yes | red reactions | NO | Yes |  |  |  |  |  | 
QYD72: AAD-like enzyme, SEQ ID NO. 143 (protein, Synthetic polypeptide, QYD72, D72) MAADAPFVVKPLPASFGAVVTGLALADLDEAAFAALYRTWLDYALLIFPGQHLDRDQQIAFARRFGPLEFDIAPISNVRSDGSVRPDDDADDVVKVLKGNMGWHCDSTYMPVQAKGAVFTAHVVPEDGGETDWADMRAAYDALDPAMRRRIEGLSAYHSLRHSQGKLGHVHKPGSAYSGYGMTVEAPPLRPLVKVHPETSRKTLMVGRHAYGIPGFEDAESERLLDELADFACRPPRTWRHSWTPGDAVIWDNRALMHRACPWDMTRPRVMYHSRLAGDPVAEFAAPA | Yes |  | Yes |  | could degrade 2,4-D; also recorded: capable of degrading 2,4-D | Yes | slight degradation |  |  | 
QYD32: AAD-like enzyme, SEQ ID NO. 63 (protein, Synthetic polypeptide, QYD32, D32) MSQMTFEPLSGPTFGARVHGVKLTAMDDAAFRELHDNWLEYGLLIVPEQFLTREEQIAFARRFGDLEFEIAEIGNMRDDGSLRPDDGSDEMMKINRGNMGWHHDSTYMPVQAKGAVFSAEIVPQEGGATGFADMRAAYDELDDAMKARIENLRAHHSLHHSQGKVGHKTKPVKDGKVNAGGTFGGYGLHDGPVSVRPLVKVHPETGRKNLLVGRHAYDIIGMSSEESEKLLQDLVDFACQPPRIYHHQWAPGDAVIWDNRRLMHQATPWPFDQARRMWHSRIAGDPATEAAMAA | Yes |  | NO | Yes |  |  |  | red reactions |  | 
QYD50: AAD-like enzyme, SEQ ID NO. 99 (protein, Synthetic polypeptide, QYD50, D50) MEEPDMARTLGIEPLAGTTFGAVVKGVKVTALDDATWRELHAAWLQYALLIFPDQHLKRAEQIAFARRFGPLEFEMAAISNVKADGSLRIEADNDDVMKILKGNMGWHCDSTYMPVQAKGAVFSAEVVPSIGGRTGFADMRAAWDALDDALKARIETLSAYHSLHHSQSKLGHQTNKRDGEYSGYGLHDGPVPLRQLVKVHPETGRKSLLIGRHAHNIPGMDKADSERLLQELVDFACQPPRIYHHDWAAGDAVVWDNRCLLHQATPWDMTQPRVMWHSRIAGDPRSEAALGGSAVSAAASG | Yes |  | Yes | Yes |  |  |  |  | could degrade 2,4-D; also recorded: capable of degrading 2,4-D | Yes
